The target of the assay is recombinant SARS-CoV-2 spike B.1.617.2 with His-tag (SARS-CoV-2), P0DTC2. In words: BLI. (In BLI a coated tip is dipped into the sample, and binding shifts an interference pattern.)

Experimental findings from PMC10507807, “De novo design of a stapled peptide targeting SARS-CoV-2 spike protein receptor-binding domain” (RSC Medicinal Chemistry, 2023) are described below.

Broadly, the Kd is the free concentration of one partner at which half of the binding sites on the other are occupied at equilibrium, for simple one-to-one binding.

For GTEWLYKVWKAFVDNMS (designed binder, modifications not checked) [stapled peptide pep39], the equilibrium dissociation constant (Kd) is 4.1 µM.
